Reference: the supplement of paper PMC10567573

B1: MLL5 (parent)
chain: TYLCERCQPRNLDKERAVLLQRRK

Variants of: B1
Experiment: protein stability index of a GFP-peptide fusion (GPS, HEK-293T) (PSI 1-6); higher = more stable
Details: c terminus: a fixed tail appended
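Further: lentivirally expressed fusions sorted by FACS into six bins by GFP to DsRed ratio, PSI derived from sequencing read proportions per bin multiplied by bin number.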

Protein stability index of substitutions, site by site:
R22: T 2.1 | K 2.03 | L 1.89 | I 2.44 | Y 1.97 | S 2.34 | V 1.98 | N 1.99 | M 2.18 | W 2.14 | P 2.9
R23: Y 1.48 | G 2.1 | N 2.36 | I 2.57 | C 2.31 | P 2.5 | S 2.35 | E 1.72 | K 2.91 | H 2.05 | W 2.39 | F 2.03 | M 2.16 | L 1.47 | D 1.76
K24: G 1.69 | T 2.28 | D 2.36 | A 1.73 | M 1.81 | L 2.17 | P 2.38 | W 3.28 | Y 1.91 | Q 2.65 | E 2.25 | H 2.74 | I 1.6
